Measured values published in patent publication US20230295298A1 (PRECISION BIOLOGICS, published 2023).

T1: human A33 antigen, full length, on cells (human, UniProt Q99795 22-319)
T1 construct: CHO cells transfected with full length A33 cDNA (A33-CHO), or endogenous antigen of LS174T (colon) and AsPC-1 (pancreatic) tumour cells; The cell line is named under assay; also called A33-CHO; A33 antigen on LS174T cells
T1 sequence: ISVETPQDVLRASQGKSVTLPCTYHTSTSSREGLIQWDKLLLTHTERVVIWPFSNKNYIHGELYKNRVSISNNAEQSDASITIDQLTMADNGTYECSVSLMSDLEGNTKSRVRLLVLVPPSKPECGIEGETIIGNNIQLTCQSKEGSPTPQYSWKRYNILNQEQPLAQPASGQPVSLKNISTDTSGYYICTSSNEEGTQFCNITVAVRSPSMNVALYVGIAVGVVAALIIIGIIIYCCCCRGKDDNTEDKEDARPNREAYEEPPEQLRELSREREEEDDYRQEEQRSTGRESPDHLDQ

T2: human recombinant A33 antigen (human, UniProt Q99795 22-235)
T2 construct: also called rH-GPA33; rHGPA33
T2 sequence: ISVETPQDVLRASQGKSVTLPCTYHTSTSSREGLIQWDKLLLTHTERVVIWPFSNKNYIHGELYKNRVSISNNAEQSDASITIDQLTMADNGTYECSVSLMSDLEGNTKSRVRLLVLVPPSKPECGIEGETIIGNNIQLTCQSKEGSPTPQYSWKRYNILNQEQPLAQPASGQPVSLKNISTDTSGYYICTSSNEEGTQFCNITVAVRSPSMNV


Key:
[1] = target: T1, human A33 antigen, full length, on cells; experiment: flow cytometry, AsPC-1 cells (first AsPC-1 column)
[2] = target: T2, human recombinant A33 antigen; experiment: rH-GPA33 binding ELISA
[3] = target: T1, human A33 antigen, full length, on cells; experiment: IHC on LS174T FFPE sections, 20ug/mL
Description: (§1) Human IgG ELISA, rH-GPA33 Binding ELISA, cell Flow Cytometry (LS174T or AsPAC1), IHC staining (LS174T FFPE, tumor FFPE and Frozen tumor sections) and Coomassie blue staining of SDS-PAGE gel were used for the screening. Antibody in the culture supernatant was purified by Protein A/G purification in the column and dissolved in PBS buffer after three times dialysis. Aliquots of the antibodies were kept at -20° C. for storage.
(§2) Each combination was produced by transient transfection by using Expi293 Expression System Kit (Gibco, cat# A14635). […] Methods of Human IgG ELISA, rH-GPA33 Binding ELISA, LS174T cell Flow Cytometry, IHC staining on LS174T FFPE sections and Coomassie blue staining of SDS-PAGE gel were used for the initial screening.

[4] = target: T1, human A33 antigen, full length, on cells; experiment: flow cytometry on LS174T cells, 0.37ug/mL
Description: as §1, §2

[5] = target: T2, human recombinant A33 antigen; experiment: rH-GPA33 binding ELISA, 2ug/mL of 31.1, supernatant
Description: as §1, §2

[6] = target: T1, human A33 antigen, full length, on cells; experiment: IHC on LS174T FFPE sections, 20ug/mL, repeat result
[7] = target: T1, human A33 antigen, full length, on cells; experiment: IHC on LS174T FFPE sections, 20ug/mL, first result

Binder	EC50 [1]	EC50 [2]	H-Score of IHC [3]	MFI [4]	OD Value of rH-GPA33 Binding ELISA [5]	H-Score of IHC [6]	H-Score of IHC [7]
H31.1 #6-biotin (antibody, human IgG1, kappa, V domains shown, biotinylated antibody, sites not stated, Biotinylated form of antibody #6; also called biotinylated #6; biotinylated h31.1 #6) VH: QIQLVQSGAEVKKPGASVKVSCKASGYTFTNYGMNWVRQAPGKGLEWMGWINTYTGEPTYAQKFQGRVTFTLDTSISTAYMELSRLRSDDTAVYFCARAYYGKYFDYWGQGTTVTVSS VL: SIQMTQSPSSLSASVGDRVTITCRASQSVSNDVAWYQQKPGQSPKLLIYYASNRYSGVPDRFSGSGYGTDFTLTISSLQPEDFAVYFCQQDYSSPLTFGAGTKLEIKR	0.368 µg/mL	12.8 µg/mL	–	–	–	–	–
H31.1 #5-biotin (antibody, human IgG1, kappa, V domains shown, biotinylated antibody, sites not stated, Biotinylated form of antibody #5; also called biotinylated #5; biotinylated h31.1 #5) VH: QIQLVQSGAEVKKPGASVKVSCKASGYTFTNYGMNWVRQAPGKGLEWMGWINTYTGEPTYAQKFQGRVTFTLDTSISTAYMELSRLRSDDTAVYFCARAYYGKYFDYWGQGTTVTVSS VL: SIVMTQSPSSLSASVGDRVTITCKASQSVSNDVAWYQQKPGQSPKLLIYYASNRYTGVPDRFSGSGYGTDFTLTISSLQPEDFAVYFCQQDYSSPLTFGAGTKLEIKR	0.408 µg/mL	0.679 µg/mL	–	–	–	–	–
humanized 31.1 antibody #13 (ven-HC + cdr-LC) (antibody, human IgG1, kappa, V domains shown, Full heavy and light chains; transient Expi293 expression, tested as culture supernatant; also called Sample ID 13; ven31.1-HC + cdr31.1-LC) VH: QIQLVQSGPEVKKPGASVKISCKASGYTFTNYGMNWVKQAPGQGLKWMGWINTYTGEPTYADDFKGRFAFTLDTSISTAYLEISRLRSDDTAVYFCARAYYGKYFDYWGQGTTLTVSS VL: SIVMTQSPSSLSASVGDRVTITCKASQSVSNDVAWYQQKPGQSPKLLIYYASNRYTGVPDRFSGSGYGTDFTLTISSLQPEDFAVYFCQQDYSSPLTFGAGTKLEIKR	–	–	20 H-Score	1150 MFI	1.27 OD	–	–
humanized 31.1 antibody #14 (ven-HC + abb-LC) (antibody, human IgG1, kappa, V domains shown, Full heavy and light chains; transient Expi293 expression, tested as culture supernatant; also called Sample ID 14; ven31.1-HC + abb31.1-LC) VH: QIQLVQSGPEVKKPGASVKISCKASGYTFTNYGMNWVKQAPGQGLKWMGWINTYTGEPTYADDFKGRFAFTLDTSISTAYLEISRLRSDDTAVYFCARAYYGKYFDYWGQGTTLTVSS VL: SIQMTQSPSSLSASVGDRVTITCRASQSVSNDVAWYQQKPGQSPKLLIYYASNRYSGVPDRFSGSGYGTDFTLTISSLQPEDFAVYFCQQDYSSPLTFGAGTKLEIKR	–	–	–	1060 MFI	1.44 OD	30 H-Score	125 H-Score
humanized 31.1 antibody #15 (ven-HC + sdr-LC) (antibody, human IgG1, kappa, V domains shown, Full heavy and light chains; transient Expi293 expression, tested as culture supernatant; also called Sample ID 15; ven31.1-HC + sdr31.1-LC) VH: QIQLVQSGPEVKKPGASVKISCKASGYTFTNYGMNWVKQAPGQGLKWMGWINTYTGEPTYADDFKGRFAFTLDTSISTAYLEISRLRSDDTAVYFCARAYYGKYFDYWGQGTTLTVSS VL: SIQMTQSPSSLSASVGDRVTITCRASQSISNDLAWYQQKPGQSPKLLIYYASNRYTGVPDRFSGSGYGTDFTLTISSLQPEDFAVYFCQQDYSSPLTFGAGTKLEIKR	–	–	90 H-Score	689 MFI	0.46 OD	–	–
humanized 31.1 antibody #16 (ven31.1-HC + ven31.1-LC) (antibody, human IgG1, kappa, V domains shown, Full heavy and light chains; supernatant in the first screen, Protein A/G purified in the third round; also called Sample ID 16; ven-HC + ven-LC) VH: QIQLVQSGPEVKKPGASVKISCKASGYTFTNYGMNWVKQAPGQGLKWMGWINTYTGEPTYADDFKGRFAFTLDTSISTAYLEISRLRSDDTAVYFCARAYYGKYFDYWGQGTTLTVSS VL: SIVMTQSPSSLSVSVGDRVTITCKASQSVSNDVAWYQQKPGQSPKLLIYYASNRYTGVPDRFSGSGYGTDFTFTISSVQPEDLAVYFCQQDYSSPLTFGAGTKLELKR	–	–	–	966 MFI	1.74 OD	0 H-Score	0 H-Score
humanized 31.1 antibody #8 (abb-HC + ven-LC) (antibody, human IgG1, kappa, V domains shown, Full heavy and light chains; transient Expi293 expression, tested as culture supernatant; also called Sample ID 8; abb31.1-HC + ven31.1-LC) VH: QIQLVQSGAEVKKPGASVKVSCKASGYTFTNYGMNWVRQAPGKGLEWMGWINTYTGEPTYAQKFQGRVTFTLDTSISTAYMELSRLRSDDTAVYFCARAYYGKYFDYWGQGTTVTVSS VL: SIVMTQSPSSLSVSVGDRVTITCKASQSVSNDVAWYQQKPGQSPKLLIYYASNRYTGVPDRFSGSGYGTDFTFTISSVQPEDLAVYFCQQDYSSPLTFGAGTKLELKR	–	–	125 H-Score	934 MFI	1.2 OD	–	–
